The values below come from patent US20050164925A1 (JOSEPH ANTHONY JAKUBOWSKI AND THURMAN DWIGHT MC KINNEY, published 2005).

To fix the notation:
T1: human GLP-1 receptor (human), P43220
T1 chain: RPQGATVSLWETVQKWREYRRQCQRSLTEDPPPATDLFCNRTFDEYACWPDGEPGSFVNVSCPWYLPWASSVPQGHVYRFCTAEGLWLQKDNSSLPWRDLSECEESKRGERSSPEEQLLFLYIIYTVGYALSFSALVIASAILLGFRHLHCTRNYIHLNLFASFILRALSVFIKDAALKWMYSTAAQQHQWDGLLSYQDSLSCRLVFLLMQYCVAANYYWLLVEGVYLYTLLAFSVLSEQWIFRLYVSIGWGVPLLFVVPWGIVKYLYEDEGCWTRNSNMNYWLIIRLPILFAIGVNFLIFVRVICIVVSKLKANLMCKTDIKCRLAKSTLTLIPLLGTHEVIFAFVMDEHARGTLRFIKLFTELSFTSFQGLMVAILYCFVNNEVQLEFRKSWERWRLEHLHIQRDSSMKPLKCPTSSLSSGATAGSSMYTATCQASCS

B1: Val^8-Tyr^12-GLP-1(7-36)NH2 (peptide)
peptide: HVEGTYTSDVSSYLEGQAAKEFIAWLVKGX
modifications: C-terminal amide (Xaa at position 37 is -NH2)
B2: Val^8-Tyr^16-Phe^19-GLP-1(7-37)OH (peptide)
peptide: HVEGTFTSDYSSFLEGQAAKEFIAWLVKGRG-OH
B3: Val^8-Ile^18-Glu^22-GLP-1(7-37)OH (peptide)
peptide: HVEGTFTSDVSIYLEEQAAKEFIAWLVKGRG-OH
B4: Val^8-Phe^16-Glu^22-GLP-1(7-37)OH (peptide)
peptide: HVEGTFTSDFSSYLEEQAAKEFIAWLVKGRG-OH
B5: Val^8-Tyr^12-Glu^22-GLP-1(7-37)OH (peptide)
peptide: HVEGTYTSDVSSYLEEQAAKEFIAWLVKGRG-OH
B6: Val^8-Glu^22-His^37-GLP-1(7-37)OH (peptide)
peptide: HVEGTFTSDVSSYLEEQAAKEFIAWLVKGRH-OH
B7: Val^8-Glu^22-Ile^33-GLP-1(7-37)OH (peptide)
peptide: HVEGTFTSDVSSYLEEQAAKEFIAWLIKGRG-OH
B8: Val^8-Tyr^16-Glu^22-GLP-1(7-37)OH (peptide)
peptide: HVEGTFTSDYSSYLEEQAAKEFIAWLVKGRG-OH
B9: Val^8-Glu^22-Val^25-GLP-1(7-37)OH (peptide)
peptide: HVEGTFTSDVSSYLEEQAVKEFIAWLVKGRG-OH
B10: Val^8-Trp^16-Glu^22-GLP-1(7-37)OH (peptide)
peptide: HVEGTFTSDWSSYLEEQAAKEFIAWLVKGRG-OH
B11: Val^8-Glu^22-Leu^25-GLP-1(7-37)OH (peptide)
peptide: HVEGTFTSDVSSYLEEQALKEFIAWLVKGRG-OH
B12: Val^8-Leu^16-Glu^22-GLP-1(7-37)OH (peptide)
peptide: HVEGTFTSDLSSYLEEQAAKEFIAWLVKGRG-OH
B13: Val^8-Trp^16-Glu^22-Ile^33-GLP-1(7-37)OH (peptide)
peptide: HVEGTFTSDWSSYLEEQAAKEFIAWLIKGRG-OH
B14: Val^8-Tyr^12-Tyr^16-GLP-1(7-37)OH (peptide)
peptide: HVEGTYTSDYSSYLEGQAAKEFIAWLVKGRG-OH
B15: Val^8-Trp^18-Glu^22-GLP-1(7-37)OH (peptide)
peptide: HVEGTFTSDVSWYLEEQAAKEFIAWLVKGRG-OH
B16: Val^8-Glu^30-GLP-1(7-37)OH (peptide)
peptide: HVEGTFTSDVSSYLEGQAAKEFIEWLVKGRG-OH
B17: Val^8-Tyr^18-Glu^22-GLP-1(7-37)OH (peptide)
peptide: HVEGTFTSDVSYYLEEQAAKEFIAWLVKGRG-OH
B18: Val^8-Glu^22-Val^25-Ile^33-GLP-1(7-37)OH (peptide)
peptide: HVEGTFTSDVSSYLEEQAVKEFIAWLIKGRG-OH
B19: Val^8-Phe^19-Glu^22-GLP-1(7-37)OH (peptide)
peptide: HVEGTFTSDVSSFLEEQAAKEFIAWLVKGRG-OH
B20: Val^8-Leu^25-GLP-1(7-37)OH (peptide)
peptide: HVEGTFTSDVSSYLEGQALKEFIAWLVKGRG-OH
B21: Val^8-Tyr^16-GLP-1(7-37)OH (peptide)
peptide: HVEGTFTSDYSSYLEGQAAKEFIAWLVKGRG-OH
B22: Val^8-Lys^18-Glu^22-GLP-1(7-37)OH (peptide)
peptide: HVEGTFTSDVSKYLEEQAAKEFIAWLVKGRG-OH
B23: Val^8-Trp^19-Glu^22-GLP-1(7-37)OH (peptide)
peptide: HVEGTFTSDVSSWLEEQAAKEFIAWLVKGRG-OH
B24: Val^8-Leu^16-GLP-1(7-37)OH (peptide)
peptide: HVEGTFTSDLSSYLEGQAAKEFIAWLVKGRG-OH
B25: Val^8-Trp^16-Glu^22-Val^25-Ile^33-GLP-1(7-37)OH (peptide)
peptide: HVEGTFTSDWSSYLEEQAVKEFIAWLIKGRG-OH
B26: Val^8-Tyr^16-Trp^19-Glu^22-GLP-1(7-37)OH (peptide)
peptide: HVEGTFTSDYSSWLEEQAAKEFIAWLVKGRG-OH
B27: Val^8-Glu^22-Ala^27-GLP-1(7-37)OH (peptide)
peptide: HVEGTFTSDVSSYLEEQAAKAFIAWLVKGRG-OH
B28: Val^8-Phe^20-Glu^22-GLP-1(7-37)OH (peptide)
peptide: HVEGTFTSDVSSYFEEQAAKEFIAWLVKGRG-OH
B29: Val^8-Trp^12-Glu^22-GLP-1(7-37)OH (peptide)
peptide: HVEGTWTSDVSSYLEEQAAKEFIAWLVKGRG-OH
B30: Val^8-Asp^9-Ile^11-Tyr^16-Glu^22-GLP-1(7-37)OH (peptide)
peptide: HVDGIFTSDYSSYLEEQAAKEFIAWLVKGRG-OH
B31: Val^8-Trp^16-Glu^22-Val^25-GLP-1(7-37)OH (peptide)
peptide: HVEGTFTSDWSSYLEEQAVKEFIAWLVKGRG-OH
B32: Val^8-Ile^16-Glu^22-GLP-1(7-37)OH (peptide)
peptide: HVEGTFTSDISSYLEEQAAKEFIAWLVKGRG-OH

Several values for one entry are separate records, joined by “and”; a condition that tells them apart may be missing. Equal values may be shown once. Where no end group is shown, it is not given here.

In the first assay the target is T2, human GLP-1 receptor (Homo sapiens, UniProt P43220).
T2 construct: expressed in transfected cells; host or cells: HEK-293 Aurora CRE-BLAM cells
The assay can be described thus: In vitro potency assay (CRE-BLAM reporter, GLP-1 receptor signaling). The assay is classed as cell-based. The settings on record: in vitro potency relative to Val^8-GLP-1(7-37)OH. The text has this:
The extent of the induction of cAMP levels can then be measured using a cAMP response element which drives the expression of a reporter gene such as luciferase or beta lactamase.
These HEK-293 cells have stably integrated a DNA vector having a cAMP response element (CRE) driving expression of the β-lactamase (BLAM) gene.
The day after seeding, the medium is replaced with plasma free medium.
Consider Exendin-4, for which the “potency higher than Val^8-GLP-1(7-37)OH” value is “approximately 5 fold”.

Val^8-Glu^22-GLP-1(7-37)OH: the “potency higher than Val^8-GLP-1(7-37)OH” value is recorded as “approximately 3 fold”.

The next assay concerns the target human GLP-1 receptor (human, UniProt P43220 24-463). The assay can be described thus: cell-based or functional assay.
Details: not given
Take B1: the “EC50 Relative to Val^8-GLP-1(7-37)OH” value is 1.1 relative to Val^8-GLP-1(7-37)OH.

For a further assay, the target named is T1, human GLP-1 receptor (human), P43220. The assay can be described thus: cell-based or functional assay.
Details: not given
As for B2, the EC50 Relative to Val^8-GLP-1(7-37)OH (relative to Val^8-GLP-1(7-37)OH) amounted to 2.8.

As for B3, the EC50 Relative to Val^8-GLP-1(7-37)OH (relative to Val^8-GLP-1(7-37)OH) was 4.

B4: the EC50 Relative to Val^8-GLP-1(7-37)OH (relative to Val^8-GLP-1(7-37)OH) came out at 2.3.

B5 gave an EC50 Relative to Val^8-GLP-1(7-37)OH (relative to Val^8-GLP-1(7-37)OH) of 2.7.

For the molecule B6, the EC50 Relative to Val^8-GLP-1(7-37)OH (relative to Val^8-GLP-1(7-37)OH) was 4.7.

B7: the EC50 Relative to Val^8-GLP-1(7-37)OH (relative to Val^8-GLP-1(7-37)OH) was 4.7 and 3.8 and 3.4.

Consider B8, for which the EC50 Relative to Val^8-GLP-1(7-37)OH (relative to Val^8-GLP-1(7-37)OH) is 3.6 and 3.8.

Regarding B9, the EC50 Relative to Val^8-GLP-1(7-37)OH (relative to Val^8-GLP-1(7-37)OH) is 4.7 and 2.9.

For the molecule B10, the EC50 Relative to Val^8-GLP-1(7-37)OH (relative to Val^8-GLP-1(7-37)OH) is 4.9 and 4.6.

Molecule B11 came in with an EC50 Relative to Val^8-GLP-1(7-37)OH (relative to Val^8-GLP-1(7-37)OH) of 2.8.

B12 registered an EC50 Relative to Val^8-GLP-1(7-37)OH (relative to Val^8-GLP-1(7-37)OH) of 4.3.

In the case of B13, the EC50 Relative to Val^8-GLP-1(7-37)OH (relative to Val^8-GLP-1(7-37)OH) amounted to 4.1.

On to B14, for which the EC50 Relative to Val^8-GLP-1(7-37)OH (relative to Val^8-GLP-1(7-37)OH) is 1.5.

In the case of B15, the EC50 Relative to Val^8-GLP-1(7-37)OH (relative to Val^8-GLP-1(7-37)OH) was 3.2 and 6.6.

B16 displayed an EC50 Relative to Val^8-GLP-1(7-37)OH (relative to Val^8-GLP-1(7-37)OH) of 0.7.

As for B17, the EC50 Relative to Val^8-GLP-1(7-37)OH (relative to Val^8-GLP-1(7-37)OH) was 5.1 and 5.9.

Take B18: the EC50 Relative to Val^8-GLP-1(7-37)OH (relative to Val^8-GLP-1(7-37)OH) was 4.9 and 5.8 and 6.7.

In turn, B19 gave an EC50 Relative to Val^8-GLP-1(7-37)OH (relative to Val^8-GLP-1(7-37)OH) of 1.5.

On to B20, for which the EC50 Relative to Val^8-GLP-1(7-37)OH (relative to Val^8-GLP-1(7-37)OH) is 0.5.

In turn, B21 returned an EC50 Relative to Val^8-GLP-1(7-37)OH (relative to Val^8-GLP-1(7-37)OH) of 2.5.

Regarding B22, the EC50 Relative to Val^8-GLP-1(7-37)OH (relative to Val^8-GLP-1(7-37)OH) is 2.5.

As to B23, the EC50 Relative to Val^8-GLP-1(7-37)OH (relative to Val^8-GLP-1(7-37)OH) is 3.2.

Molecule B24 came in with an EC50 Relative to Val^8-GLP-1(7-37)OH (relative to Val^8-GLP-1(7-37)OH) of 1.1.

In the case of B25, the EC50 Relative to Val^8-GLP-1(7-37)OH (relative to Val^8-GLP-1(7-37)OH) stood at 5.

B26 registered an EC50 Relative to Val^8-GLP-1(7-37)OH (relative to Val^8-GLP-1(7-37)OH) of 3.5.

The molecule B27 returned an EC50 Relative to Val^8-GLP-1(7-37)OH (relative to Val^8-GLP-1(7-37)OH) of 2.2.

B28: the EC50 Relative to Val^8-GLP-1(7-37)OH (relative to Val^8-GLP-1(7-37)OH) is 2.7.

Molecule B29 registered an EC50 Relative to Val^8-GLP-1(7-37)OH (relative to Val^8-GLP-1(7-37)OH) of 1.7.

Consider B30, for which the EC50 Relative to Val^8-GLP-1(7-37)OH (relative to Val^8-GLP-1(7-37)OH) came to 4.3.

Regarding B31, the EC50 Relative to Val^8-GLP-1(7-37)OH (relative to Val^8-GLP-1(7-37)OH) amounted to 4.4.

Regarding B32, the EC50 Relative to Val^8-GLP-1(7-37)OH (relative to Val^8-GLP-1(7-37)OH) is 3.3.
